# Measured values as given in US20240262870.
# B1: PglS oligosaccharyltransferase from A. baylyi ADP1 (PglSADP1) (protein)
# chain: MNSIFKKIKNYTIVSGVFFLGSAFIIPNTSNLSSTLYKELIAVLGLLILLTVKSFDYKKILIPKNFYWFLFVIFIIFIQLIVGEIYFFQDFFFSISFLVILFLSFLLGFNERLNGDDLIVKKIAWIFIIVVQISFLIAINQKIEIVQNFFLFSSSYNGRSTANLGQPNQFSTLILITLFLLCYLREKNSLNNMVFNILSFCLIFANVMTQSRSAWISVILISLLYLLKFQKKIELRRVIFFNIVFWTLVYCVPLLFNLIFFQKNSYSTFDRLTMGSSRFEIWPQLLKAVFHKPFIGYGWGQTGVAQLETINKSSTKGEWFTYSHNLFLDLMLWNGFFIGLIISILILCFLIELYSSIKNKSDLFLFFCVVAFFVHCLLEYPFAYTYFLIPVGFLCGYISTQNIKNSISYFNLSKRKLTLFLGCCWLGYVAFWVEVLDISKKNEIYARQFLFSNHVKFYNIENYILDGFSKQLDFQYLDYCELKDKYQLLDFKKVAYRYPNASIVYKYYSISAEMKMDQKSANQIIRAYSVIKNQKIIKPKLKFCSIEY
# Molecular target: hexa-histidine tagged ComP from A. baylyi ADP1 (ComPADP1)
protein,measurement,value
B1,"glycosylation of acceptor with K. pneumoniae K1 or K2 capsular polysaccharide, western blot",PglS was able to glycosylate ComP with the K1 and K2 capsular polysaccharides from K. pneumonia
